Experimental data: paper PMC10051150, “Structure and Dynamics of Three Escherichia coli NfsB Nitro-Reductase Mutants Selected for Enhanced Activity with the Cancer Prodrug CB1954” (International Journal of Molecular Sciences, 2023)

Target: the molecule itself
Assay: crystal structure; crystals from 10–18% PEG 4000, 50–200 mM sodium acetate buffer pH 4.6, 15 mM nicotinic acid (where present), 15% ethylene glycol; molecular replacement with PDB 1ICR; two subunits in the asymmetric unit

B1: T41L/N71S NfsB (enzyme, Escherichia coli)
chain: MDIISVALKRHSTKAFDASKKLTPEQAEQIKTLLQYSPSSLNSQPWHFIVASTEEGKARVAKSAAGNYVFSERKMLDASHVVVFCAKTAMDDVWLKLVVDQEDADGRFATPEAKAANDKGRKFFADMHRKDLHDDAEWMAKQVYLNVGNFLLGVAALGLDAVPIEGFDAAILDAEFGLKEKGYTSLVVVPVGHHSVEDFNATLPKSRLPQNITLTEV
notes: Escherichia coli NfsB nitroreductase, 24 kDa subunit, expressed as the native protein; Expressed 'as the native proteins', so no tag is stated; Homodimer with one FMN per active site; also called double mutant; T41L/N71S mutant; source: E. coli BL21 (λDE3), pET11c, purified (Phenyl Sepharose, Q-Sepharose)
B1: binds.

B2: T41Q/N71S/F124T NfsB (enzyme, Escherichia coli)
chain: MDIISVALKRHSTKAFDASKKLTPEQAEQIKTLLQYSPSSQNSQPWHFIVASTEEGKARVAKSAAGNYVFSERKMLDASHVVVFCAKTAMDDVWLKLVVDQEDADGRFATPEAKAANDKGRKFTADMHRKDLHDDAEWMAKQVYLNVGNFLLGVAALGLDAVPIEGFDAAILDAEFGLKEKGYTSLVVVPVGHHSVEDFNATLPKSRLPQNITLTEV
notes: Escherichia coli NfsB nitroreductase, 24 kDa subunit, expressed as the native protein; Expressed 'as the native proteins', so no tag is stated; Homodimer with one FMN per active site; also called triple mutant; T41Q/N71S/F124T mutant; source: E. coli BL21 (λDE3), pET11c, purified (Phenyl Sepharose, Q-Sepharose)
B2: binds.

B3: T41Q/N71S/F124T/M127V NfsB (enzyme, Escherichia coli)
chain: MDIISVALKRHSTKAFDASKKLTPEQAEQIKTLLQYSPSSQNSQPWHFIVASTEEGKARVAKSAAGNYVFSERKMLDASHVVVFCAKTAMDDVWLKLVVDQEDADGRFATPEAKAANDKGRKFTADVHRKDLHDDAEWMAKQVYLNVGNFLLGVAALGLDAVPIEGFDAAILDAEFGLKEKGYTSLVVVPVGHHSVEDFNATLPKSRLPQNITLTEV
notes: Escherichia coli NfsB nitroreductase, 24 kDa subunit; also called quadruple mutant; T41Q/N71S/F124T/M127V mutant; source: initially purified from a UT5600 E. coli lysogen, later also recloned into pET11c; purified (Phenyl Sepharose, Q-Sepharose)
B3: binds.
